These results are taken from US20250304675A1 (MHS CARE INNOVATION, published 2025).

The target in assay [1] is human gastric inhibitory polypeptide (glucose-dependent insulinotropic polypeptide) (human).
The target of assay [2] is T1, human gastric inhibitory polypeptide (glucose-dependent insulinotropic polypeptide) (human).
T1 construct: also called human GIP; hGIP
T1 peptide: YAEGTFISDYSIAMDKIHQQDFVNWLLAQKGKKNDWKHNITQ
Description: direct binding ELISA, CHO supernate on coated human GIP; 9th of 10 in the printed order. On the procedure: (§1) CHO cells co-transfected with the mammalian expression vectors were grown in culture and the supernate collected. The supernate was evaluated for the presence of GIP-binding mAbs by direct binding ELISA Human GIP was fixed to the bottom of the wells on 96-well plates. Serial dilutions of the supernate were added to different wells of the 96-well plate. After a one hour incubation, the wells were washed twice with PBS before a secondary antibody that specifically binds to human IgG was added to each well. The antibody that specifically binds to human IgG was conjugated with the enzyme horse radish peroxidase (HRP). After incubation for one hour, the wells were washed with PBS before the HRP substrate was added. If HRP was present in a well, the substrate was converted to a colored compound. The amount of color intensity was read using a spectrophotometer. The amount of color produced was proportional to the amount of HRP-antibody conjugate remaining in each well. The amount of color produced was also proportional to the amount of mAb bound to hGIP in each well.
Background: An ELISA detects its analyte on a solid surface through an enzyme-linked reagent.

The target in assay [3] is T2, gastric inhibitory polypeptide (GIP), species not stated at the place of the result (Homo sapiens (Human), UniProt P09681 52-93).
T2 peptide: T1 peptide
Briefly: modified Schild's assay plot, reporter cell line expressing GIP receptors (derived from a functional assay).

In assay [4] the target is T1, human gastric inhibitory polypeptide …. Description: direct binding ELISA, CHO supernate on coated human GIP; 7th of 10 in the printed order. On the procedure:
as §1

Assay [5] shares this target. Description: direct binding ELISA, CHO supernate on coated human GIP; 4th of 10 in the printed order. The protocol:
as §1

For assay [6] the target is unchanged. Description: direct binding ELISA, CHO supernate on coated human GIP; 3rd of 10 in the printed order. On the procedure: as §1
The target is the same in assay [7]. Description: direct binding ELISA, CHO supernate on coated human GIP; 10th of 10 in the printed order. On the procedure: as §1
Assay [8] has the same target. Description: direct binding ELISA, CHO supernate on coated human GIP; 6th of 10 in the printed order. The protocol:
as §1

Assay [9] has as its target T2, gastric inhibitory polypeptide (GIP), …. Briefly: hybridoma screening; assay not further stated.

Numbering of substitutions follows the chain as printed.

Fc showed a Relative Activity (beta-galactosidase of LGIPR3a reporter cells expressing rat GIPR; Fc mixed with 0.1 nM hGIP; bar as high as that of GIP alone, 0.098, so no neutralization) in assay [1] of 0.105.

B1: LC1/HC3 humanized antibody (antibody, V domains shown)
VH: QVQLQESGAEVKKPGASVKVSCKASGFNIRDYYLHWVRQAPGQGLEWMGWIDPENGDTEYAPKFQGRVTTTADTSISTAYMELSRLRSDDTAVYYCNVYGIYFMDYWGQGTLVTVSS
VL: DIQMTQSPSSVSASVGDRVTITCRASSSISSNSLHWYQQKPGKAPKLLIYRTSSLQSGVPSRFSGSGSGTDYTLTISSLQPEDFATYYCQQGSSFPRMLTFGQGTKLEIKR
notes: Tested as CHO supernate
In the case of B1, the binding result in assay [2] was “binds”.

B2: LC2/HC2 humanized antibody (antibody, V domains shown)
VH: QVQLVQSGAEVKKPGATVKISCKASGFNIRDYYLHWVQQAPGKGLEWMGWIDPENGDTEYAPKFQGRVTITADTSTNTAYMELSSLRSEDTAVYYCNVYGIYFMDYWGQGTMVTVSS
VL: B1 VL with M4L, S54N
notes: CHO supernate in the ELISA; Protein A purified in the neutralization assay; also called mAbH; GIP mAbH
In assay [3], B2 returned a Kd of 2200 nM.

B3: LC1/HC1 humanized antibody (antibody, V domains shown)
VH: B2 VH with A24V, N77D
VL: B1 VL
notes: Tested as CHO supernate
Take B3: the binding result in [4] is given as “binds”.

B4: LC1/HC2 humanized antibody (antibody, V domains shown)
VH: B2 VH
VL: B1 VL
notes: Tested as CHO supernate
Regarding B4, the binding result in [5] is “binds”.

B5: 10g10 monoclonal antibody (original mouse mAb) (antibody, V domains shown)
VH: QVQLQESGAELVRSGASVKLSCTASGFNIRDYYLHWIKQRPEQGLEWIGWIDPENGDTEYAPKFQDKATVTADTSSNTAYLQLNSLTSEDTAVYYCNVYGIYFMDYWGQGTTVTVSS
VL: DIQLTQSPSTMAASPGEKITITCSASSSISSNSLHWYQQKPGFSPKLLIYRTSNLASGVPGRFSGSGSGTSYSLTIGTMETEDVATYYCQQGSSFPRMLTFGTGTKLEIKR
notes: Mouse hybridoma antibody; also called 10g10 mAb; 10g10 GIP mAb
For the molecule B5, in assay [3], the Kd came to 3200 nM.

B6: LC3/HC2 humanized antibody (antibody, V domains shown)
VH: B2 VH
VL: DIQMTQSPGTLSLSPGERATLSCRASSSISSNSLHWYQQKPGQAPRLLIYRTSNRATGIPARFSGSGSGTDYTLTISSLEPEDFAVYYCQQGSSFPRMLTFGGGTKVEIKR
notes: Tested as CHO supernate
On to B6, for which, in [6], the binding result was “binds”.

B7: LC3/HC3 humanized antibody (antibody, V domains shown)
VH: B1 VH
VL: B6 VL
notes: Tested as CHO supernate
Regarding B7, in assay [7], the binding result is listed as “binds”.

B8: LC3/HC1 humanized antibody (antibody, V domains shown)
VH: B2 VH with A24V, N77D
VL: B6 VL
notes: Tested as CHO supernate
Consider B8, for which the binding result in assay [8] is “binds”.

B9: 14B9 antibody (antibody, V domains shown)
VH: QVQLQESGAALVRSGASVKLSCTASGFNIKDYYFHWVKQRPDQGLEWIGWIDPENGDTEYAPNFQVKATMTADTYSNTAYLHLSSLTSEDTAVYYCNSYGNNYFDYWGQGTTVTVSS
VL: DIQLTQSPAIMAASLGQKVTMTCSASSSVSSSYLHWYQQKSGASPKSLIHRTSNLASGVPARFSGSGSGTSYSLTISSVEAEDDATYYCLQWSGFPFTFGSGTKLEIKR
notes: Comparison antibody
In the case of B9, the binding result in [9] is “no binding”.

For orientation: Kd means the concentration at which binding is half-saturated. Higher therefore signals weaker binding.
